The values below come from publication PMC7565637.

The target of experiment [1] is full-length Le Blanc δ (Le Blanc virus). The experiment in a line: intact-protein LC-MS (reverse phase C3 column, Orbitrap); purified δ diluted to 200 ng/μl in 2% ACN, 0.1% FA; ZORBAX C3-300SB column, gradient 5% to 95% B; Orbitrap Fusion Lumos, positive mode; observed mass compared with the theoretical pentamer mass.
The target in experiment [2] is full-length Santeuil δ (Santeuil virus). Described as above.
Experiment [3] deals with Orsay δ(1–101) (Orsay virus). The experiment in a line: crystal structure; Orsay δ(1–101) crystallised by hanging drop, 0.1 M ammonium sulfate, 0.1 M sodium acetate pH 4.6, 25% PEG 4000, 20°C; space group P212121, five chains in the asymmetric unit; 1.8 Å.
Experiment [4] has as its target Orsay virus capsid protein (CP) (Orsay virus). The experiment in a line: co-sedimentation; infectious Orsay virions from culture supernatant of infected rde-1 worms, Triton X-100 treated, pelleted, banded on a 25% to 47.5% iodixanol step gradient (~1.3 g/ml); SDS-PAGE and Western blot with anti-CP antiserum, band intensities measured with Fiji. On the technique in general: Immunoblotting shows a protein as a band on a membrane.

What is called stoichiometry N is a count of units in the complex or per binding partner. In the case of “full-length Le Blanc δ (natural protein)”, the stoichiometry N in experiment [1] stood at 5.
Turning to “full-length Santeuil δ (natural protein)”, the stoichiometry N in experiment [2] came to 5.
In turn, Orsay δ(1–101) (domain or fragment) returned a stoichiometry N in experiment [3] of 5.
In turn, “Orsay CP-δ fusion protein (natural protein)” yielded a pentameric CP-δ fibers per viral particle (fibers per viral particle) in experiment [4] of 1.1.
